Positions count from the first letter of the chain named. Numbers in names are those of the source. Values belong to the binder of their own block, whether it stands above or below them.
Tests used:
[1] = molecular target: T1, DDB1 in DF15R cell extracts (UniProt Q16531 2-1140); experiment: immunoprecipitation and Western blot from DF15R cell extracts (FIG. 24C)
T1 construct: Co-immunoprecipitated with FLAG-tagged CRBN proteins from cell extracts

[2] = molecular target: T2, full-length human GSPT1 (human, UniProt P15170 1-499); experiment: CRBN immunoprecipitation in the presence of vehicle or Compound C (FIG. 34A)
T2 construct: mature; limits unknown; also called hGSPT1
T2 sequence (P15170 other isoform, or with tags, fused parts or gaps limits assumed): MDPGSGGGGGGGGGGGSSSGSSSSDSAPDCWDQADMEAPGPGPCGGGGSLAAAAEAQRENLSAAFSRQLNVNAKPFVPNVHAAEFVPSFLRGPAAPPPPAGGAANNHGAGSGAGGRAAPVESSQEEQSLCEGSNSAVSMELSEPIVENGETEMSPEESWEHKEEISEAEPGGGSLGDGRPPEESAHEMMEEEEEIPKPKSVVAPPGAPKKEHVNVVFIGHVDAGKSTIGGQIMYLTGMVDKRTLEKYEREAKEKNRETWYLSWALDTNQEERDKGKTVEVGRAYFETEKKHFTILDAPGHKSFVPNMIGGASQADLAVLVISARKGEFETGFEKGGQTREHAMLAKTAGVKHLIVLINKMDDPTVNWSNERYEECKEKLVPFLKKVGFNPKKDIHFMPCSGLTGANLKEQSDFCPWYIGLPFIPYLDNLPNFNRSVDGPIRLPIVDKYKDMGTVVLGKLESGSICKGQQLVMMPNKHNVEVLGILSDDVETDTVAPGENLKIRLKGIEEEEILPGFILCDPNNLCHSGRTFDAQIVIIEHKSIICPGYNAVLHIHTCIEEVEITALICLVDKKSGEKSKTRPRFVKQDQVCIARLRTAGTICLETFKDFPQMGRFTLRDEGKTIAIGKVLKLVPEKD

[3] = molecular target: T3, human GSPT1 G575N (human, UniProt P15170-3 139-637, limits assumed); experiment: Compound C-induced in vitro binding of GSPT1 to CRBN (FIG. 31C)
T3 construct: also called G575N mutation in GSPT1
T3 sequence (P15170 whole entry G437N): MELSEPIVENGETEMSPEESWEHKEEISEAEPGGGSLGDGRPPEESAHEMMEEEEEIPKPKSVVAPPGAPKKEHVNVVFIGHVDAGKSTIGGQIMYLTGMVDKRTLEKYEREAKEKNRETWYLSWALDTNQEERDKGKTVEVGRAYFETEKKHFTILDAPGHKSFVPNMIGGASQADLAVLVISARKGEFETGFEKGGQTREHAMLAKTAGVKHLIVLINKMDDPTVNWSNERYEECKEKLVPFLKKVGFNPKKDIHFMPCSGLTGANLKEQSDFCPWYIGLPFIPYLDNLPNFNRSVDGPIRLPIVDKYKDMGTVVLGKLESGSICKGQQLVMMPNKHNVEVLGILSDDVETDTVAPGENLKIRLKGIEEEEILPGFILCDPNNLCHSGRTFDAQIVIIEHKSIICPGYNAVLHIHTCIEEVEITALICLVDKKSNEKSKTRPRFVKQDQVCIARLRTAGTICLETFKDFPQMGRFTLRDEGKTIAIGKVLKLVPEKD

T1 sequence (Q16531 2-1140 limits assumed): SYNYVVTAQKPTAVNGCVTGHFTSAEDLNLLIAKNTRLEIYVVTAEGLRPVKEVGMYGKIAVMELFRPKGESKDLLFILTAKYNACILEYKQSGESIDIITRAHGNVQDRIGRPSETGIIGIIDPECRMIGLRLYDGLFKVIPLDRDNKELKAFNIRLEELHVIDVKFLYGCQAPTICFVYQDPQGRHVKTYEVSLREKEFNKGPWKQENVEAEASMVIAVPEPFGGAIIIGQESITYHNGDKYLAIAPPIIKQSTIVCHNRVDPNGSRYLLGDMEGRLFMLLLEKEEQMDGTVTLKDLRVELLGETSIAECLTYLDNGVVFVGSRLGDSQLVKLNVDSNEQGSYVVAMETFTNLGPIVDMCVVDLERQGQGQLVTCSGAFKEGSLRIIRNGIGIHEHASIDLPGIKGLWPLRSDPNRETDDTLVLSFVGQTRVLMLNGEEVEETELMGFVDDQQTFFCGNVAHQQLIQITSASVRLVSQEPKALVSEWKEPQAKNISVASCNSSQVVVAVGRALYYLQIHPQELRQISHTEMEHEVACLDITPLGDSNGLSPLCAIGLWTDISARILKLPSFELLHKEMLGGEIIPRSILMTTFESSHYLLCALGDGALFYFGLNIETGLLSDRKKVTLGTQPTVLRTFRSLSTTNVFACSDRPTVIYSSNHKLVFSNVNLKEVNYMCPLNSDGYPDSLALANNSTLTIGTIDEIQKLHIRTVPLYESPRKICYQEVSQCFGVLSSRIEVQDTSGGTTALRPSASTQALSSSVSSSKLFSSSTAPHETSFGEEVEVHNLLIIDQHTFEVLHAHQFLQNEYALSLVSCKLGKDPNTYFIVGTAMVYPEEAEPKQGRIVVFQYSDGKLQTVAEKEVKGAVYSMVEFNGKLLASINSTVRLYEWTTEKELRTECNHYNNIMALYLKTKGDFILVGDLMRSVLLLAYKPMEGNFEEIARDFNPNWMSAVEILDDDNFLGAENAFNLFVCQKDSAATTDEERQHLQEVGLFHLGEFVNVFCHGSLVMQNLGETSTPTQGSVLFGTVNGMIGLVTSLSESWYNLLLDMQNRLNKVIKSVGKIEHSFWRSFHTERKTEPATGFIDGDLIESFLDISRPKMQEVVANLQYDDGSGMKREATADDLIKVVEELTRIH

- binding result [3]: no binding
B4: human WT CRBN (other, UniProt Q96SW2 1-442, looked up)
chain: MAGEGDQQDAAHNMGNHLPLLPAESEEEDEMEVEDQDSKEAKKPNIINFDTSLPTSHTYLGADMEEFHGRTLHDDDSCQVIPVLPQVMMILIPGQTLPLQLFHPQEVSMVRNLIQKDRTFAVLAYSNVQEREAQFGTTAEIYAYREEQDFGIEIVKVKAIGRQRFKVLELRTQSDGIQQAKVQILPECVLPSTMSAVQLESLNKCQIFPSKPVSREDQCSYKWWQKYQKRKFHCANLTSWPRWLYSLYDAETLMDRIKKQLREWDENLKDDSLPSNPIDFSYRVAACLPIDDVLRIQLLKIGSAIQRLRCELDIMNKCTSLCCKQCQETEITTKNEIFSLSLCGPMAAYVNPHGYVHETLTVYKACNLNLIGRPSTEHSWFPGYAWTVAQCKICASHIGWKFTATKKDMSPQKFWGLTRSALLPTIPDTEDEISPDKVILCL
notes: also called cereblon; hCRBN

- binding result [2]: no binding
B6: human CRBN E377V (other, UniProt Q96SW2 1-442, looked up)
chain: B4 chain with E377V

More lines, now with the values behind:

B1: full length CRBN W386A (CRBN^W386A), FLAG-tagged, re-expressed in DF15R cells (other, human, UniProt Q96SW2 1-442, looked up)
chain: B4 chain with W386A
notes: mature; not shown: FLAG tag
- binding result [1]: binds

B2: human CRBN E377A (other, UniProt Q96SW2 1-442, looked up)
chain: B4 chain with E377A
- binding result [2]: no binding

B3: human CRBN H357A (other, UniProt Q96SW2 1-442, looked up)
chain: B4 chain with H357A
- binding result [2]: no binding

B5: full length CRBN W400A (CRBN^W400A), FLAG-tagged, re-expressed in DF15R cells (other, human, UniProt Q96SW2 1-442, looked up)
chain: B4 chain with W400A
notes: mature; not shown: FLAG tag
- binding result [1]: binds

— patent US10830762 (dated 2020)
